Reference: US20150086555A1

B1: TCN-546 (5089_L08) (antibody, V domains shown)
VH: QVQLQQWGAGLLKPSETLSLTCGVYGGSLSDYYWSWIRQPPGKGLEWIGEINHSGGTNYNPSLKRRVTISVDTSKKQFSLKMNSVTAADTAVYYCARGTDPDTEVYCRAGNCAAFDFWGQGTLVTVSS
VL: EIVLTQSPGTLSLSPGERATLSCRASHFVIGRAVAWYQQKPGQAPRLLIYGASSRATGIPDRFSGSGSGTDFTLTISRLETEDFAVFYCQHYGSSPRYAFGQGTKLEIK
B2: TCN-543 (5081_G23) (antibody, V domains shown)
VH: QVHLVQSGAEVRKPGDSVKVSCKTSGYTFSTYPVAWVRQVPGQGLEWMGWISTYNGNTNFAQNFQGRVTLTTDTTTNTAYMEVRSLKFDDTAVYYCARVEGSYRDFWNNQNRFDPWGQGTLVTVSS
VL: SYVLTQPPSVSVAPGQTARISCGGSNIGGKSVHWYQQKPGQAPVLVVYDDSGRPSGIPERFSGSNSGDTATLTISRVEAGDEADYFCQVWDNFGGVFGTGTKVTVL
B3: TCN-538 (3206_O17) (antibody, V domains shown)
VH: QITLKESGPTLVKPTQTLTLTCVFSGFSLSITGVRVGWIRQPPGKALEWLALISWDDEKHYSPSLQSRLTITKDTSKNQVVLTMTNLDPVDTATYYCARSTDRGHVLRYFGWMLPGDAFDVWGQGTMVTVSS
VL: DIVMTQSPDFLPVSLGERATINCKSSQRVLYSSNNKNYLAWYQLKPGQPPKLIIYWASTRESGVPDRFSGSGSGTEFTLTISSLQAEDVAVYYCQQYYSRPYTFGQGTKLEIK
B4: TCN-552 (5249_I23) (antibody, V domains shown)
VH: QVQVVQSGAEVKKPGSSVRVSCQASGGTFMNYAIIWVRRAPGQGLEWMGGIIPVFPTPNYAQMFQGRVTISTDESRSTSFLELTNLRYEDTAVYYCARRIYHGGNSGFDFWGQGTLVTVSS
VL: EIVLTQSPATLSLSPGERATLSCRASQSVGNYLAWYQQKPGQAPRLLIYDSSNRAPGIPARFSGSGSGTDFTLTISSLAPEDFAVYYCQQRSKWPPMYSFGHGTKLEIK
B5: TCN-557 (5081_A04) (antibody, V domains shown)
VH: QVQLVQSGAEVKKPGASVKVSCKASGHTFTGYYIHWVRQAPGQGLEWMGWINPDSGATSSAQNFQGRVTMTGDTSSSTAYMELSRLSFDDTAVYYCARVLFTSPFDFWGEGTLVTVSS
VL: QAVVTQEPSLAVSPGGTVTLTCGSSTGAVTRGHYPYWFQQKPGQAPRALIYDSAGNRHSWTPARFSGSLLGGKAALTLSGAQPEDEAEYYCLLSYSGVWVFGGGTKLTVL
B6: TCN-539 (5056_A08) (antibody, V domains shown)
VH: QVQLVESGGGVVQPGRSLRLSCAASEITFITYAMHWVRQAPGKGLEWVALISDDGSNKFYADSVKGRFTISRDNSKNTLYLQMNSLRAEDTAAYYCAREGVYFDSGTYRGYFDYWGQETLVTVSS
VL: EIVLTQSPATLSLSPGERATLSCRASQSVSSYLAWYQQKPGQAPRLLIYDASNRATGIPARFSGSGSGTDFTLTISSLEPEDFAVYYCQQRSHWPPITFGQGTRLEIK
B7: TCN-553 (5261_C18) (antibody, V domains shown)
VH: QVQVVQSGTEVKKPGSSVKVSCQTSGGRFMSYAITWVRQAPGQGLEWMGGIVPVFGTANYAQKFQGRVTITTDDSTRTAYMELSSLRSEDTAVYYCGFRYGSGYGFDSWGQGTLVTVSS
VL: EIVLTQSPGTLSLSPGERATLSCRASQSVSSSYLAWYQKKPGQAPRLLIYGASTRATGIPDRFTGSGSGTDFTLSISRLEPEDFAVYYCQHFGTSVFTFGGGTKVEIK
B8: TCN-550 (5096_F06) (antibody, V domains shown)
VH: QVQLQESGPGLVKPSETLSLTCTVSGASINSHYWSWIRQPPGKGLEWIGYVYYSGSTTYNPSLKSRVTLSVDTSKNQFSLNLSSVTAADTAFYYCARHPYDVLTGSGDWFDPWGQGTLVTVSS
VL: SYVLTQAPSVSVAPGQTARITCGGNAIGSKKVHWYQHKAGQAPVLVVYDDTDRPSGIPERFSGSNSWSTATLTINRVEAGDEADYYCQVWDFTIDHVVFGGGTKLTVL
B9: TCN-540 (5060_F05) (antibody, V domains shown)
VH: QVQLVQSGGGVVQPGRSLRLSCAASGFTFSSYAMHWVRQAPGKGLEWVAIISYDGNDQYYTDSVKGRFTISRDSSKVYLQMHRLRPEDTAVYYCAKEFETSGYFHGSFDYWGQGILVTVSS
VL: QSALTQPASVSGSPGQSITISCTGTSSDVGGYNYVSWYQQHPGKAPKLLIYEVTNWPSGVSNRFSGSKSGNTASLTISGLQAEDEADYYCSSYAGSSTWVFGGGTRVTVL

How the values were obtained:
Details in all cases: remark: other sources report otherwise
[1] = target: recombinant soluble homotrimeric HA of A/Vietnam/1203/04 (H5N1) (Influenza A virus A/VietNam/1203/2004(H5N1)); assay: trimeric HA microarray, transfection supernatant set 5
[2] = target: recombinant soluble homotrimeric HA of A/California/4/09 (H1N1) (Influenza A virus A/California/04/2009(H1N1)); assay: as above
[3] = target: recombinant soluble homotrimeric HA of A/northern shoveler/California/HKWF115/07 (H6) (Influenza A virus A/northern shoveler/California/HKWF115/2007(H6N1)); assay: as above
[4] = target: recombinant soluble homotrimeric HA of A/chicken/Vietnam/NCVD-016/08 (H5N1) (Influenza A virus A/chicken/Vietnam/NCVD-016/2008(H5N1)); assay: as above
[5] = target: recombinant soluble homotrimeric HA of A/duck/Yangzhou/02/05 (H8N4) (Influenza A virus A/duck/Yangzhou/02/2005(H8N4)); assay: as above
[6] = target: recombinant soluble homotrimeric HA of A/swine/Ontario/01911-2/99 (H4N6) (Influenza A virus A/Swine/Ontario/01911-2/99 (H4N6)); assay: as above
[7] = target: recombinant soluble homotrimeric HA of A/Egypt/3300-NAMRU3/08 (H5N1) (Influenza A virus A/Egypt/3300-NAMRU3/2008(H5N1)); assay: as above
[8] = target: recombinant soluble homotrimeric HA of A/Japan/305/57 (H2N2) (Influenza A virus A/Japan/305/1957(H2N2)); assay: as above
[9] = target: recombinant soluble homotrimeric HA of A/South Carolina/1/18 (H1N1) (Influenza A virus A/South Carolina/1/18 (H1N1)); assay: as above
[10] = target: recombinant soluble homotrimeric HA of A/Hong Kong/156/97 (H5N1) (Influenza A virus A/Hong Kong/156/97 (H5N1)); assay: as above
[11] = target: recombinant soluble homotrimeric HA of A/Wisconsin/67/05 (H3N2) (Influenza A virus A/Wisconsin/67/2005(H3N2)); assay: as above
[12] = target: recombinant soluble homotrimeric HA of A/Anhui/1/05 (H5N1) (Influenza A virus A/Anhui/1/2005(H5N1)); assay: as above
[13] = target: recombinant soluble homotrimeric HA of A/Indonesia/5/05 (H5N1) (Influenza A virus A/Indonesia/5/2005(H5N1)); assay: as above
[14] = target: recombinant soluble homotrimeric HA of A/Solomon Islands/3/06 (H1N1) (Influenza A virus A/Solomon Islands/3/2006(H1N1)); assay: as above
[15] = target: recombinant soluble homotrimeric HA, A/Netherlands/219/03 H7N7 (Influenza A virus A/Netherlands/219/03(H7N7)); assay: microarray, transfection SN IgG, trimeric HA
[16] = target: recombinant soluble homotrimeric HA, A/swine/Ontario/01911-2/99 H4N6 (Influenza A virus A/Swine/Ontario/01911-2/99 (H4N6)); assay: microarray, transfection SN IgG, trimeric HA

Row | Binder | Trimeric HA Binding: RLU [1] | Trimeric HA Binding: RLU [2] | Trimeric HA Binding: RLU [3] | Trimeric HA Binding: RLU [4] | Trimeric HA Binding: RLU [5] | Trimeric HA Binding: RLU [6] | Trimeric HA Binding: RLU [7] | Trimeric HA Binding: RLU [8] | Trimeric HA Binding: RLU [9] | Trimeric HA Binding: RLU [10] | Trimeric HA Binding: RLU [11] | Trimeric HA Binding: RLU [12] | Trimeric HA Binding: RLU [13] | Trimeric HA Binding: RLU [14] | Trimeric HA Binding: RLU [15] | Trimeric HA Binding: RLU [16]
1 | B1 | 47100 RLU | 1080 RLU | 2430 RLU | 2940 RLU | 11400 RLU | 4610 RLU | 53000 RLU | 1730 RLU | 955 RLU | 1240 RLU | 28500 RLU | 33300 RLU | 40900 RLU |  |  | 
2 | B2 | 33100 RLU | 2340 RLU | 2510 RLU | 5880 RLU | 13100 RLU | 2870 RLU | 17600 RLU | 2780 RLU | 28300 RLU | 1430 RLU | 37000 RLU | 2630 RLU | 1830 RLU | 43500 RLU |  | 
3 | B3 | 52400 RLU | 16000 RLU | 8900 RLU | 2950 RLU | 4060 RLU | 3350 RLU | 41000 RLU | 6620 RLU | 8430 RLU | 5170 RLU |  |  | 13700 RLU | 1960 RLU |  | 
4 | B4 |  |  |  |  |  |  |  |  |  |  |  |  |  |  | 7420 RLU | 9080 RLU
5 | B5 |  |  |  |  |  |  |  |  |  |  |  |  |  |  | 53700 RLU | 41500 RLU
6 | B6 | 53300 RLU | 1050 RLU | 2860 RLU | 3500 RLU |  |  |  | 2560 RLU | 5330 RLU | 1450 RLU | 58800 RLU | 3240 RLU | 8950 RLU | 871 RLU |  | 
7 | B7 |  |  |  |  |  |  |  |  |  |  |  |  |  |  | 7530 RLU | 12200 RLU
8 | B8 |  |  |  |  |  |  |  |  |  |  |  |  |  |  | 3250 RLU | 1700 RLU
9 | B9 | 42500 RLU | 984 RLU | 2460 RLU | 1510 RLU | 6080 RLU |  | 15600 RLU | 47900 RLU | 1360 RLU | 1550 RLU | 53000 RLU | 2190 RLU | 2570 RLU | 1180 RLU |  | 
